Source: the RNAGym collection of RNA variant scans (doi:10.7554/elife.80360)

B1: CPEB3 Ribozyme (parent)
chain: GGGGGCCACAGCAGAAGCGUUCACGUCGCGGCCCCUGUCAGAUUCUGGUGAAUCUGCGAAUUCUGCUGU

Variants of: B1
Assay: self-cleavage, relative activity (ratio to wild type); higher = more cleavage; co-transcriptional

Variant | self-cleavage
GGGGGCCACAGCAGAAGCCUUCACGUCGCGGCCCCUGUCAGAUUCUGGUGAAUCUGCGGAUUCUGCUGU [G19C A59G] | 0.175
GGGGGCCACAGCAGAAGCCUUAACGUCGCGGCCCCUGUCAGAUUCUGGUGAAUCUGCGAAUUCUGCUGU [G19C C22A] | 0.0962
GGGGGCCACAGCAGAAGCCUUGACGUCGCGGCCCCUGUCAGAUUCUGGUGAAUCUGCGAAUUCUGCUGU [G19C C22G] | 0.156
GGGGGCCACAGCAGAAGCCUUCACGUCGCGACCCCUGUCAGAUUCUGGUGAAUCUGCGAAUUCUGCUGU [G19C G31A] | 0.132
GGGGGCCACAGCAGAAGCCUUCACGUCGCGCCCCCUGUCAGAUUCUGGUGAAUCUGCGAAUUCUGCUGU [G19C G31C] | 0.153
GGGGGCCACAGCAGAAGCCUUCACGUCGCGUCCCCUGUCAGAUUCUGGUGAAUCUGCGAAUUCUGCUGU [G19C G31U] | 0.217
GGGGGCCACAGCAGAAGCAUUCACGUCGCGGCCCCUGUCAGAUUCUGGUGAAACUGCGAAUUCUGCUGU [G19A U53A] | 0.174
GGGGGCCACAGCAGAAGCCUUCACGUCGCGGUCCCUGUCAGAUUCUGGUGAAUCUGCGAAUUCUGCUGU [G19C C32U] | 0.198
GGGGGCCACAGCAGAAGCCUUCACGUCGCGGACCCUGUCAGAUUCUGGUGAAUCUGCGAAUUCUGCUGU [G19C C32A] | 0.146
GGGGGCCACAGCAGAAGCCUUCACGUCGCGGCCCCUGUCAGAUUCUGGUGAAUCUGCGAAUUCUGAUGU [G19C C66A] | 0.114
GGGGGCCACAGCAGAAGCCUUCACGUCGCGGCCCCUGUCAGAUUCUGGUGAAUCUGCGAAUUCUGGUGU [G19C C66G] | 0.172
GGGGGCCACAGCAGAAGCCUUCACGUCGCGGCCCCUGUCAGAUUCUGGUGAAUCUGCGAAUUCUGUUGU [G19C C66U] | 0.105
GGGGGCCACAGCAGAAGCAUUCACGUCGCGGCCCCUGUCAGAUUCUGGUGAAUCUGCGAAUACUGCUGU [G19A U62A] | 0.204
GGGGGCCACAGCAGAAGCAUUCACGUCGCGGCCCCUGUCAGAUUCUGGUGAAUCUGCGAAUGCUGCUGU [G19A U62G] | 0.169
GGGGGCCACAGCAGAAGCCUUCACGUCGCGGCCCCUGUCGGAUUCUGGUGAAUCUGCGAAUUCUGCUGU [G19C A40G] | 0.194
GGGGGCCACAGCAGAAGCCUUCACGUCGCGGCCCCUGUCUGAUUCUGGUGAAUCUGCGAAUUCUGCUGU [G19C A40U] | 0.0999
GGGGGCCACAGCAGAAGCCUUCACGUCGCGGCCCCUGUCAGAUUCUGGUGAAUCUACGAAUUCUGCUGU [G19C G56A] | 0.16
GGGGGCCACAGCAGAAGCCUUCACGUCGCGGCCCCUGUCAGAUUCUGGUGAAUCUCCGAAUUCUGCUGU [G19C G56C] | 0.169
GGGGGCCACAGCAGAAGCCUUCACGUCGCGGCCCCUGUCAGAUUCUGGUGAAUCUGCGAAUUCUGCUGU [G19C] | 0.154
GGGGGCCACAGCAGAAGCCUUCACGUCGCGGCCCCUGUCAGAUUCUGGUGAGUCUGCGAAUUCUGCUGU [G19C A52G] | 0.134
GGGGGCCACAGCAGAAGCCUUCACGUCGCGGCCCCUGUCAGAUUCUGGUGACUCUGCGAAUUCUGCUGU [G19C A52C] | 0.195
GGGGGCCACAGCAGAAGCCUUCACGUCGCGGCCCCUGUCAGAUUCUGGUGAUUCUGCGAAUUCUGCUGU [G19C A52U] | 0.189
GGGGGCCACAGCAGAAGCCUUCACGUCGCGGCCCCUGUCAGAUUCUGGUGAAUCUGCCAAUUCUGCUGU [G19C G58C] | 0.12
GGGGGCCACAGCAGAAGCCUUCACGUCGCGGCCCCUGUCAGAUUCUGGUGAAUCUGCUAAUUCUGCUGU [G19C G58U] | 0.19
GGGGGCCACAGCAGAAGCCUUCACGUCGCGGCUCCUGUCAGAUUCUGGUGAAUCUGCGAAUUCUGCUGU [G19C C33U] | 0.181
GGGGGCCACAGCAGAAGCCUUCACGUCGCGGCGCCUGUCAGAUUCUGGUGAAUCUGCGAAUUCUGCUGU [G19C C33G] | 0.142

Variant | self-cleavage
GGGGGCCACAGCAGAAGCCUUCACGUCGCGGCCCCUGUCAGAUUCUGGUGCAUCUGCGAAUUCUGCUGU [G19C A51C] | 0.122
GGGGGCCACAGCAGAAGCCUUCACGUCGCGGCCCCUGUCAAAUUCUGGUGAAUCUGCGAAUUCUGCUGU [G19C G41A] | 0.142
GGGGGCCACAGCAGAAGCCUUCACGUCGCGGCCCCUGUCACAUUCUGGUGAAUCUGCGAAUUCUGCUGU [G19C G41C] | 0.17
GGGGGCCACAGCAGAAGCCUUCACGUCGCGGCCCCUGUCAGAUUCUGGUGAAUCUGCGAAUUCUACUGU [G19C G65A] | 0.127
GGGGGCCACAGCAGAAGCCUUCACGUCGAGGCCCCUGUCAGAUUCUGGUGAAUCUGCGAAUUCUGCUGU [G19C C29A] | 0.164
GGGGGCCACAGCAGAAGCCUUCACGUCGGGGCCCCUGUCAGAUUCUGGUGAAUCUGCGAAUUCUGCUGU [G19C C29G] | 0.1
GGGGGCCACAGCAGAAGCCUUCCCGUCGCGGCCCCUGUCAGAUUCUGGUGAAUCUGCGAAUUCUGCUGU [G19C A23C] | 0.181
GGGGGCCACAGCAGAAGCCUUCUCGUCGCGGCCCCUGUCAGAUUCUGGUGAAUCUGCGAAUUCUGCUGU [G19C A23U] | 0.119
GGGGGCCACAGCAGAAGCCUUCACGUCGCGGCCACUGUCAGAUUCUGGUGAAUCUGCGAAUUCUGCUGU [G19C C34A] | 0.196
GGGGGCCACAGCAGAAGCCUUCACGUCGCGGCCUCUGUCAGAUUCUGGUGAAUCUGCGAAUUCUGCUGU [G19C C34U] | 0.209
GGGGGCCACAGCAGAAGCCUUCACGUCGCGGCCGCUGUCAGAUUCUGGUGAAUCUGCGAAUUCUGCUGU [G19C C34G] | 0.115
GGGGGCCACAGCAGAAGCCUUCACGUCGCGGCCCCUGUCAGAUUCUGGUGAAUCUGCGACUUCUGCUGU [G19C A60C] | 0.15
GGGGGCCACAGCAGAAGCCUUCACGUCGCGGCCCCUGUCAGAUUCUUGUGAAUCUGCGAAUUCUGCUGU [G19C G47U] | 0.152
GGGGGCCACAGCAGAAGCCUUCACGUCGCGGCCCCUGUCAGAUUCUCGUGAAUCUGCGAAUUCUGCUGU [G19C G47C] | 0.147
GGGGGCCACAGCAGAAGCAUUCACGUCGCGGCCCCUGUCAGAUUCGGGUGAAUCUGCGAAUUCUGCUGU [G19A U46G] | 0.151
GGGGGCCACAGCAGAAGCAUUCACGUCGCGGCCCCUGUCAGAUUCCGGUGAAUCUGCGAAUUCUGCUGU [G19A U46C] | 0.103
GGGGGCCACAGCAGAAGCAUUCACGUCGCGGCCCCUGUCAGAUUCUGGUGAAUCUGCGAAUUCCGCUGU [G19A U64C] | 0.159
GGGGGCCACAGCAGAAGCCUUCACCUCGCGGCCCCUGUCAGAUUCUGGUGAAUCUGCGAAUUCUGCUGU [G19C G25C] | 0.141
GGGGGCCACAGCAGAAGCCUUCACGUCGCGGCCCCUGUCAGAUUCUGGUUAAUCUGCGAAUUCUGCUGU [G19C G50U] | 0.186
GGGGGCCACAGCAGAAGCCUUCACGUCGCGGCCCCUGUCAGAUUCUGGUAAAUCUGCGAAUUCUGCUGU [G19C G50A] | 0.147
GGGGGCCACAGCAGAAGCAUUCACGUCGCGGCCCCUGUCAGAUUCUGGUGAAUCAGCGAAUUCUGCUGU [G19A U55A] | 0.185
GGGGGCCACAGCAGAAGCAUUCACGUCGCGGCCCCUGUCAGAUUCUGGUGAAUCGGCGAAUUCUGCUGU [G19A U55G] | 0.099
GGGGGCCACAGCAGAAGCAUUCACGUCGCGGCCCCUGUCAGAUUCUGGUGAAUCCGCGAAUUCUGCUGU [G19A U55C] | 0.218
GGGGGCCACAGCAGAAGCAUUCACGUCGCGGCCCCUGUCAGAUUCUGGUGAAUCUGCGAAUUCUGCUGA [G19A U69A] | 0.184
GGGGGCCACAGCAGAAGCCUUCACGUCCCGGCCCCUGUCAGAUUCUGGUGAAUCUGCGAAUUCUGCUGU [G19C G28C] | 0.131
GGGGGCCACAGCAGAAGCCUUCACGUCUCGGCCCCUGUCAGAUUCUGGUGAAUCUGCGAAUUCUGCUGU [G19C G28U] | 0.142

Variant | self-cleavage
GGGGGCCACAGCAGAAGCCUUCACGUCACGGCCCCUGUCAGAUUCUGGUGAAUCUGCGAAUUCUGCUGU [G19C G28A] | 0.147
GGGGGCCACAGCAGAAGCCUUCACGUCGCGGCCCCUGUAAGAUUCUGGUGAAUCUGCGAAUUCUGCUGU [G19C C39A] | 0.155
GGGGGCCACAGCAGAAGCCUUCACGUCGCGGCCCGUGUCAGAUUCUGGUGAAUCUGCGAAUUCUGCUGU [G19C C35G] | 0.149
GGGGGCCACAGCAGAAGCCUUCACGUCGCGGCCCAUGUCAGAUUCUGGUGAAUCUGCGAAUUCUGCUGU [G19C C35A] | 0.154
GGGGGCCACAGCAGAAGCCUUCACGUCGCGGCCCCUGUCAGAUUAUGGUGAAUCUGCGAAUUCUGCUGU [G19C C45A] | 0.178
GGGGGCCACAGCAGAAGCCUUCACGUCGCGGCCCCUGUCAGAUUUUGGUGAAUCUGCGAAUUCUGCUGU [G19C C45U] | 0.154
GGGGGCCACAGCAGAAGCCUUCACGUCGCGGCCCCUGUCAGAUUGUGGUGAAUCUGCGAAUUCUGCUGU [G19C C45G] | 0.119
GGGGGCCACAGCAGAAGCCUUCACGUCGCGGCCCCUGUCAGAUUCUGGUGAAUCUGGGAAUUCUGCUGU [G19C C57G] | 0.132
GGGGGCCACAGCAGAAGCCUUCACGUCGCGGCCCCUGUCAGAUUCUGGUGAAUCUGAGAAUUCUGCUGU [G19C C57A] | 0.158
GGGGGCCACAGCAGAAGCCUUCACGUCGCCGCCCCUGUCAGAUUCUGGUGAAUCUGCGAAUUCUGCUGU [G19C G30C] | 0.129
GGGGGCCACAGCAGAAGCCUUCACGUCGCAGCCCCUGUCAGAUUCUGGUGAAUCUGCGAAUUCUGCUGU [G19C G30A] | 0.159
GGGGGCCACAGCAGAAGCAUUCACGUCGCGGCCCCUGUCAGAUUCUGGUGAAUCUGCGAAAUCUGCUGU [G19A U61A] | 0.16
GGGGGCCACAGCAGAAGCAUUCACGUCGCGGCCCCUGUCAGAUUCUGGUGAAUCUGCGAACUCUGCUGU [G19A U61C] | 0.164
GGGGGCCACAGCAGAAGCCUUCACGUCGCGGCCCCUUUCAGAUUCUGGUGAAUCUGCGAAUUCUGCUGU [G19C G37U] | 0.143
GGGGGCCACAGCAGAAGCCUUCACGUCGCGGCCCCUAUCAGAUUCUGGUGAAUCUGCGAAUUCUGCUGU [G19C G37A] | 0.225
GGGGGCCACAGCAGAAGCCUUCACGUCGCGGCCCCUCUCAGAUUCUGGUGAAUCUGCGAAUUCUGCUGU [G19C G37C] | 0.183
GGGGGCCACAGCAGAAGCCUUCACGUCGCGGCCCCUGUCAGAUUCUGGUGAAUAUGCGAAUUCUGCUGU [G19C C54A] | 0.158
GGGGGCCACAGCAGAAGCCUUCACGUCGCGGCCCCUGUCAGAUUCUGGUGAAUGUGCGAAUUCUGCUGU [G19C C54G] | 0.163
GGGGGCCACAGCAGAAGCCUUCACGUCGCGGCCCCUGUCAGAUUCUGGUGAAUUUGCGAAUUCUGCUGU [G19C C54U] | 0.113
GGGGGCCACAGCAGAAGCCUUCACGUUGCGGCCCCUGUCAGAUUCUGGUGAAUCUGCGAAUUCUGCUGU [G19C C27U] | 0.116
GGGGGCCACAGCAGAAGCCUUCACGUGGCGGCCCCUGUCAGAUUCUGGUGAAUCUGCGAAUUCUGCUGU [G19C C27G] | 0.961
GGGGGCCACAGCAGAAGCAUUCACGUCGCGGCCCCUGUCAGAUUCUGGUGAAUCUGCGAAUUCUGCGGU [G19A U67G] | 0.205
GGGGGCCACAGCAGAAGCAUUCACGUCGCGGCCCCUGUCAGAUUCUGGUGAAUCUGCGAAUUCUGCCGU [G19A U67C] | 0.177
GGGGGCCACAGCAGAAGCAUUCACGUCGCGGCCCCUGUCAGAUUCUGGAGAAUCUGCGAAUUCUGCUGU [G19A U49A] | 0.2
GGGGGCCACAGCAGAAGCAUUCACGUCGCGGCCCCUGUCAGAUUCUGGGGAAUCUGCGAAUUCUGCUGU [G19A U49G] | 0.181
GGGGGCCACAGCAGAAGCAUUCACGUCGCGGCCCCUGUCAGAUUCUGGCGAAUCUGCGAAUUCUGCUGU [G19A U49C] | 0.163
